{
  "source": "paper PMC9706529",
  "about": "“Identification of a S-(2-succino)cysteine breakdown pathway that uses a novel S-(2-succino) lyase” (The Journal of Biological Chemistry, 2022)",
  "molecules": {"B1": {"name": "D. dadantii 2SL (Dd) (Dickeya dadantii 3937) (protein)", "chain": "MASHLIDFLLIGNNFGTPEMRAVWSEQNRLTRQVDVEIALALAEGDLGVIPQDAASTIASHANASALNIEEIAQDAVRMKHSLMPTIAAIQRQCGEAGEYIHYGVTTQDVVDTATVLQLRQAFDIVVRDTRLVAIELKRLAKKHQHTLMTGRTHGMQALPTTFGFKLAVWLDEFVRHLQRLNEIRERVLVGNINGAIGTYASFGELGPEIERHTLTRLGLNTPNIGWQSARDRFSEYASVTVLISGTLGKIGNELYNLMRTEINEIEEPFSEGKIGSTTMPHKRNPAALEGLASLTAPLFKSAALIHESMKVEHERDAMSWRAEWIALPEINIYLSAQLQNALGILRGMSVNEKQMRANLDLQNGLLLSEKVMFEIGKLLGKQTAHHLVYECSMAAFEQNREFKALLLEHPVLSQHLTADTLDTWLDPANYVGSAPQKVDEVIRYADGTGLLAE", "notes": "full-length, N-terminal hexahistidine tag (pET28b), expressed in E. coli BL21-(DE3)-RIPL, Ni-NTA purified; tag removal not mentioned"}, "B2": {"name": "E. italicus 2SL (Ei) (Enterococcus italicus DSM 15952) (protein)", "chain": "MGSHVIDLVMLRNNFSTAEMRAIWNDEARITKQLAVEAALAQAEGELGLIPKEAAKKIAKVAKETTFDIAAIAEQVAVLKHSLMPTINALQAAAGDEGEFVHYGATTQDIVDTGTVLQLKDAYNIVLRDTQVVFEKLAKLAKHYQNVPMVGRTHGMQALPITFGYKLAIWVDEFGRHLERLHEIKERVFTGNINGAVGSYASFGPKGSEVERQTLAILDLNAPTIGWQSSRDRFSEYASVIGLISATLGKIGNEFYNLMRTEINEIEEPFSKGKIGSSTMPHKRNPAAFEGLASLTPPVLKSVALIHESMHVEHERDAMSWRQEWVALPEMNAYVSAQLAILANVLDGLQVKEAVMARNLEKQHGLLLSEKVMFEVGQKLGKQTAHHLVYECAMTSFEEERPFIDTLFEQAAIADTYARAEVEQWLDPTQYTGLCADKVDEVLAAWQTKGFLKEG", "notes": "as for B1"}},
  "key": {"[1]": {"molecular_target": "T1, E. italicus 2SL (Ei) (Enterococcus italicus, UniProt E6LDH5)", "T1 construct": "gene purB; full-length, N-terminal hexahistidine tag (pET28b), expressed in E. coli BL21-(DE3)-RIPL, Ni-NTA purified; tag removal not mentioned", "T1 sequence (E6LDH5 1-455)": "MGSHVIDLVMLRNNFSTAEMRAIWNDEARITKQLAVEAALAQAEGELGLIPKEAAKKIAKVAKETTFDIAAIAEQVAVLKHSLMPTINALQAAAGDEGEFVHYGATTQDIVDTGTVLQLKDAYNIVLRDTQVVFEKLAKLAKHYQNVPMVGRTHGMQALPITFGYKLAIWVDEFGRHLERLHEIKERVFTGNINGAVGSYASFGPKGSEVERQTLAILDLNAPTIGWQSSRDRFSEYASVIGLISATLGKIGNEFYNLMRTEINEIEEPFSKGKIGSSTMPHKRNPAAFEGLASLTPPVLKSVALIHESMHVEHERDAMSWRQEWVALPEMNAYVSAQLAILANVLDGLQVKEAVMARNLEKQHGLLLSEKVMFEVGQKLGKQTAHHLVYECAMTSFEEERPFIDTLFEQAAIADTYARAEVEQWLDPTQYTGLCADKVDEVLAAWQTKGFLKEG", "experiment": "HPLC, […] nm, 2SNAC synthesis", "format": "biochemical", "conditions": "50 mM Tris-HCl pH 8.0, 21 °C, 4.0 mM NAC; synthesis direction; read-out: Kinetic parameter / Km"}, "[2]": {"molecular_target": "T2, D. dadantii 2SL (Dd) (Dickeya dadantii, UniProt E0SKP1)", "T2 construct": "gene Dda3937_00284; full-length, N-terminal hexahistidine tag (pET28b), expressed in E. coli BL21-(DE3)-RIPL, Ni-NTA purified; tag removal not mentioned", "T2 sequence (E0SKP1 1-454)": "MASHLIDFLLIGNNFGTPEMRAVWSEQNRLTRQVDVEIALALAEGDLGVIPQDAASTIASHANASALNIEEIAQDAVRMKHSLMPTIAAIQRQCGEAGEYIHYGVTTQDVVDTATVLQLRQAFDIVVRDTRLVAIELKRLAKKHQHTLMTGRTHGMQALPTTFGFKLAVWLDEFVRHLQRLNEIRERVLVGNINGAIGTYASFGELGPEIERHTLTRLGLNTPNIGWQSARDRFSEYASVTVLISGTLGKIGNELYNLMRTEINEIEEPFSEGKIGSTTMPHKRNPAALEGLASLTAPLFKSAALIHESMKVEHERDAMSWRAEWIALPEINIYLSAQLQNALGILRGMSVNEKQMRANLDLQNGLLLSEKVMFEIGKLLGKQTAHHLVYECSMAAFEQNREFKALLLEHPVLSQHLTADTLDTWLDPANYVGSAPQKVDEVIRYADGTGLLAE", "experiment": "HPLC, […] nm, 2SNAC synthesis", "format": "biochemical", "conditions": "50 mM Tris-HCl pH 8.0, 21 °C, 4.0 mM NAC; synthesis direction; read-out: Kinetic parameter / Km"}, "[3]": {"substrate": "N[C@@H](CSC(CC(=O)O)C(=O)O)C(=O)O", "experiment": "purified protein", "format": "biochemical, Dickeya dadantii", "conditions": "100 mM Tris-HCl pH 8.0, 21 °C, 40 mM glutamate, 2 mM NAD+, breakdown direction"}, "[4]": {"substrate": "CC(=O)N[C@@H](CS)C(=O)O", "experiment": "purified protein", "format": "biochemical, Dickeya dadantii", "conditions": "50 mM Tris-HCl pH 8.0, 21 °C, 30 mM fumarate, synthesis direction"}, "[5]": {"substrate": "CC(=O)N[C@@H](CSC(CC(=O)O)C(=O)O)C(=O)O", "experiment": "purified protein", "format": "biochemical, Dickeya dadantii", "conditions": "100 mM Tris-HCl pH 8.0, 21 °C, 40 mM glutamate, 2 mM NAD+, breakdown direction"}, "[6]": {"substrate": "N[C@@H](CS)C(=O)O", "experiment": "purified protein", "format": "biochemical, Dickeya dadantii", "conditions": "50 mM Tris-HCl pH 8.0, 21 °C, 30 mM fumarate, synthesis direction"}, "[7]": {"substrate": "N[C@@H](CSC(CC(=O)O)C(=O)O)C(=O)O", "experiment": "purified protein", "format": "biochemical, Enterococcus italicus", "conditions": "100 mM Tris-HCl pH 8.0, 21 °C, 40 mM glutamate, 2 mM NAD+, breakdown direction"}, "[8]": {"substrate": "CC(=O)N[C@@H](CS)C(=O)O", "experiment": "purified protein", "format": "biochemical, Enterococcus italicus", "conditions": "50 mM Tris-HCl pH 8.0, 21 °C, 30 mM fumarate, synthesis direction"}, "[9]": {"substrate": "CC(=O)N[C@@H](CSC(CC(=O)O)C(=O)O)C(=O)O", "experiment": "purified protein", "format": "biochemical, Enterococcus italicus", "conditions": "100 mM Tris-HCl pH 8.0, 21 °C, 40 mM glutamate, 2 mM NAD+, breakdown direction"}, "[10]": {"substrate": "N[C@@H](CS)C(=O)O", "experiment": "purified protein", "format": "biochemical, Enterococcus italicus", "conditions": "50 mM Tris-HCl pH 8.0, 21 °C, 30 mM fumarate, synthesis direction"}},
  "data": [
    {"molecule": "O=C(O)/C=C/C(=O)O", "note": "[fumarate]", "values": [
      {"measurement": "Km", "setting": "[1]", "value": "230 ± 20", "unit": "µM"},
      {"measurement": "Km", "setting": "[2]", "value": "3240 ± 300", "unit": "µM"}
    ]},
    {"molecule": "B1", "values": [
      {"measurement": "Km", "setting": "[3]", "value": "12300 ± 1100", "unit": "µM"},
      {"measurement": "Vmax", "setting": "[3]", "value": 0.069, "unit": "µmol/min/mg"},
      {"measurement": "kcat", "setting": "[3]", "value": "0.06 ± 0.004", "unit": "s⁻¹"},
      {"measurement": "kcat/Km", "setting": "[3]", "value": 4.9, "unit": "M⁻¹ s⁻¹"},
      {"measurement": "Km", "setting": "[4]", "value": "690 ± 50", "unit": "µM"},
      {"measurement": "Vmax", "setting": "[4]", "value": 27.6, "unit": "µmol/min/mg"},
      {"measurement": "kcat", "setting": "[4]", "value": "24.2 ± 3.7", "unit": "s⁻¹"},
      {"measurement": "kcat/Km", "setting": "[4]", "value": 35000, "unit": "M⁻¹ s⁻¹"},
      {"measurement": "Km", "setting": "[5]", "value": "1200 ± 220", "unit": "µM"},
      {"measurement": "Vmax", "setting": "[5]", "value": 0.4, "unit": "µmol/min/mg"},
      {"measurement": "kcat", "setting": "[5]", "value": "0.35 ± 0.05", "unit": "s⁻¹"},
      {"measurement": "kcat/Km", "setting": "[5]", "value": 290, "unit": "M⁻¹ s⁻¹"},
      {"measurement": "Km", "setting": "[6]", "value": "19000 ± 1900", "unit": "µM"},
      {"measurement": "Vmax", "setting": "[6]", "value": 11.1, "unit": "µmol/min/mg"},
      {"measurement": "kcat", "setting": "[6]", "value": "9.7 ± 0.4", "unit": "s⁻¹"},
      {"measurement": "kcat/Km", "setting": "[6]", "value": 510, "unit": "M⁻¹ s⁻¹"}
    ]},
    {"molecule": "B2", "values": [
      {"measurement": "Km", "setting": "[7]", "value": "10700 ± 2300", "unit": "µM"},
      {"measurement": "Vmax", "setting": "[7]", "value": 0.058, "unit": "µmol/min/mg"},
      {"measurement": "kcat", "setting": "[7]", "value": "0.051 ± 0.004", "unit": "s⁻¹"},
      {"measurement": "kcat/Km", "setting": "[7]", "value": 4.7, "unit": "M⁻¹ s⁻¹"},
      {"measurement": "Km", "setting": "[8]", "value": "390 ± 30", "unit": "µM"},
      {"measurement": "Vmax", "setting": "[8]", "value": 105, "unit": "µmol/min/mg"},
      {"measurement": "kcat", "setting": "[8]", "value": "92.1 ± 7.1", "unit": "s⁻¹"},
      {"measurement": "kcat/Km", "setting": "[8]", "value": 236000, "unit": "M⁻¹ s⁻¹"},
      {"measurement": "Km", "setting": "[9]", "value": "1400 ± 100", "unit": "µM"},
      {"measurement": "Vmax", "setting": "[9]", "value": 2.42, "unit": "µmol/min/mg"},
      {"measurement": "kcat", "setting": "[9]", "value": "2.12 ± 0.21", "unit": "s⁻¹"},
      {"measurement": "kcat/Km", "setting": "[9]", "value": 1510, "unit": "M⁻¹ s⁻¹"},
      {"measurement": "Km", "setting": "[10]", "value": "17800 ± 3600", "unit": "µM"},
      {"measurement": "Vmax", "setting": "[10]", "value": 11.9, "unit": "µmol/min/mg"},
      {"measurement": "kcat", "setting": "[10]", "value": "10.4 ± 1.5", "unit": "s⁻¹"},
      {"measurement": "kcat/Km", "setting": "[10]", "value": 580, "unit": "M⁻¹ s⁻¹"}
    ]}
  ]
}
